Tests used:
[1] = biological target: Apt1-Flag fusion protein (human), O75608; assay: native gel or EMSA; settings: remark: other sources report otherwise
[2] = biological target: Apt2-Flag fusion protein (human), O95372; assay: native gel or EMSA; settings: remark: other sources report otherwise

B1: Apt1-Flag fusion protein, O75608 1-230 (enzyme)
chain: MCGNNMSTPLPAIVPAARKATAAVIFLHGLGDTGHGWAEAFAGIRSSHIKYICPHAPVRPVTLNMNVAMPSWFDIIGLSPDSQEDESGIKQAAENIKALIDQEVKNGIPSNRIILGGFSQGGALSLYTALTTQQKLAGVTALSCWLPLRASFPQGPIGGANRDISILQCHGDCDPLVPLMFGSLTVEKLKTLVNPANVTFKTYEGMMHSSCQQEMMDVKQFIDKLLPPID
Question: With B1 as the binder, how does the stoichiometry N [1] read?
Answer: The stoichiometry N was 2.

B2: Apt2-Flag fusion protein, O95372 1-231 (enzyme)
chain: MCGNTMSVPLLTDAATVSGAERETAAVIFLHGLGDTGHSWADALSTIRLPHVKYICPHAPRIPVTLNMKMVMPSWFDLMGLSPDAPEDEAGIKKAAENIKALIEHEMKNGIPANRIVLGGFSQGGALSLYTALTCPHPLAGIVALSCWLPLHRAFPQAANGSAKDLAILQCHGELDPMVPVRFGALTAEKLRSVVTPARVQFKTYPGVMHSSCPQEMAAVKEFLEKLLPPV
Question: How did the stoichiometry N [2] turn out when B2 was run?
Answer: Its stoichiometry N is 2.
